# How the values were obtained:
# Experiment in all cases: fluorescence anisotropy
# Details in all cases: fluorescein-12-UTP incorporated during transcription; 50 mM Tris pH 7.5, 40 mM KCl, 10 mM MgCl2, 1 mM DTT, 10 nM fluorescein-labeled RNA, 21 C
# A3Hhap II (Homo sapiens) = tested on: A3Hhap II (Homo sapiens)
# A3G (Homo sapiens) = tested on: A3G (Homo sapiens)
# [1] = tested on: A3C-A3Hhap II (synthetic double domain chimera) (Homo sapiens (synthetic chimera))
substance,measurement,setting,value
HIV-1 5'UTR RNA (nt 1-497),Kd,A3Hhap II (Homo sapiens),0.52 nM
same,Kd,A3G (Homo sapiens),6.36 nM
same,Kd,[1],0.03 nM
